The values that follow come from patent publication US20250248992A1, “INNATE IMMUNE-ACTIVATING DRUG AND USE THEREOF” (LUODA BIOPHARMA (SUZHOU) CO., LTD., priority 2021, published 2025).

In this experiment the test system is OVA-specific antibodies in serum. Briefly: Immune adjuvant activity with ovalbumin (OVA), serum antibody ELISA. In kind it is in vivo, mice. As to conditions: OVA alone, intramuscular, Day 0, 7, 14, serum Day 21. In general terms: An ELISA detects its analyte on a solid surface through an enzyme-linked reagent.

B1: ovalbumin (protein, UniProt P01012 2-386, looked up)
Ovalbumin: GSIGAASMEFCFDVFKELKVHHANENIFYCPIAIMSALAMVYLGAKDSTRTQINKVVRFDKLPGFGDSIEAQCGTSVNVHSSLRDILNQITKPNDVYSFSLASRLYAEERYPILPEYLQCVKELYRGGLEPINFQTAADQARELINSWVESQTNGIIRNVLQPSSVDSQTAMVLVNAIVFKGLWEKAFKDEDTQAMPFRVTEQESKPVQMMYQIGLFRVASMASEKMKILELPFASGTMSMLVLLPDEVSGLEQLESIINFEKLTEWTSSNVMEERKIKVYLPRMKMEEKYNLTSVLMAMGITDVFSSSANLSGISSAESLKISQAVHAAHAEINEAGREVVGSAEAGVDAASVSEEFRADHPFLFCIKHIATNAVLFFGRCVSP
notes: Antigen ovalbumin (OVA) used for immunization of mice
Take B1: the “protective humoral immune response after immunization” value is on record as “did not generate a protective humoral immune response”.
